Literature values, collected in publication PMC10830413.
Read-outs that look alike come from different tables or passages of the source.

Columns and labels:
LPHN3 [1] = molecular target: LPHN3 (UniProt Q9HAR2)
LPHN3 [2] = molecular target: LPHN3 (UniProt Q9HAR2); remark: listed apart in the source

Sequence of UniProt Q9HAR2 (Q9HAR2 20-862): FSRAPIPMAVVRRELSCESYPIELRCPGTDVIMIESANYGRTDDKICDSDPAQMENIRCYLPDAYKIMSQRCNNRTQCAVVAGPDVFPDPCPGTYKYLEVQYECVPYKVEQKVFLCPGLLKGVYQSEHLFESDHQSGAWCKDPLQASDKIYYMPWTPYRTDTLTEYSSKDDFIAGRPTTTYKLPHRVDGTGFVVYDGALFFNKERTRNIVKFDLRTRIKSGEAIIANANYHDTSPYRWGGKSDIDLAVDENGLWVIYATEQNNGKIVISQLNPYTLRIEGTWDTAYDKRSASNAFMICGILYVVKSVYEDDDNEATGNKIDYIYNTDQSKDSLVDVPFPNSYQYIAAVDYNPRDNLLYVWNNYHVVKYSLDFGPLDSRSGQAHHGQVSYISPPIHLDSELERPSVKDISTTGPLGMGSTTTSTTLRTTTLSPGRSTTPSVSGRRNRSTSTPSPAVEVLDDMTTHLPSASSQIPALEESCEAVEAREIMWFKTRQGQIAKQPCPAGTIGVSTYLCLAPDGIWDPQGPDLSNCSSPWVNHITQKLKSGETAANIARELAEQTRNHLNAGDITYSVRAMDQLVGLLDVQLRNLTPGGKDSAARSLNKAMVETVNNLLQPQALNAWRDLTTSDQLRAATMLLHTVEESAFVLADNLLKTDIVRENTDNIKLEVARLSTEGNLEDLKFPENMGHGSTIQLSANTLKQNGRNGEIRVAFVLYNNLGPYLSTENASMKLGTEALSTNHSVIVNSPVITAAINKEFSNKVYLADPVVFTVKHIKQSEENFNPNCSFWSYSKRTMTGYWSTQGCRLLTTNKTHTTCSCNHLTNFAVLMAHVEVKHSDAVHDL

Kd (LPHN3 [1]) | Kd (LPHN3 [2]) | Substance
0.5 µM |  | TENM2 (from UniProt Q9NT68)
 | 0.015 µM | FLRT3 (from UniProt Q9NZU0)
